Common to all, as to experiment: fluorescence polarization
Data set [1] has as its system nsp12 RdRP (SARS-CoV-2 (Wuhan-1 strain)).
Data set [2] deals with nsp7 (SARS-CoV-2 (Wuhan-1 strain)).
Data set [3] deals with nsp8 (SARS-CoV-2 (Wuhan-1 strain)).
In data set [4] the test system is nsp8L7 (nsp8-GSGSGS-nsp7 fusion) (SARS-CoV-2 (Wuhan-1 strain)).

Take FP primer-template RNA hairpin: the Kd (as a rule, the concentration at which binding is half-saturated) was 200 nM in data set [1], 7000 nM in data set [2], 200 nM in data set [3] and 200 nM in data set [4].
